Literature values as cited in article PMC7465696.

Target: HP1β CSD (Homo sapiens) (UniProt P83916)
Experiment: sedimentation analysis

- Kd: < 150 nM
Substance: HP1β CSD (from UniProt P83916)
